Reference: patent US20230190901A1 (published 2023)

T1: MAGEC2 peptide on HLA-A*02 (human)
T1 peptide: FVYGEPREL

T2: MAGEC2 peptide on HLA-A*02 (human)
T2 peptide: ALIEVGPDHFCV


Tests used:
[1] = molecular target: T1, MAGEC2 peptide on HLA-A*02; test: binding, other
[2] = molecular target: T2, MAGEC2 peptide on HLA-A*02; test: binding, other

binding result [1]	binding result [2]	Binder
recognises		TCR of SEQ ID NOs 34 and 35 (TCR, V domains shown) Valpha: KQEVTQIPAALSVPEGENLVLNCSFTDSAIYNLQWFRQDPGKGLTSLLLIQSSQREQTSGRLNASLDKSSGRSTLYIAASQPGDSATYLCAVTGNTPLVFGKGTRLSVIA Vbeta: NAGVTQTPKFQVLKTGQSMTLQCAQDMNHEYMSWYRQDPGMGLRLIHYSVGAGITDQGEVPNGYNVSRSTTEDFPLRLLSAAPSQTSVYFCASSYSPYYEQYFGPGTRLTVT
	recognises	TCR of SEQ ID NOs 26 and 27 (TCR, V domains shown) Valpha: KQEVTQIPAALSVPEGENLVLNCSFTDSAIYNLQWFRQDPGKGLTSLLLIQSSQREQTSGRLNASLDKSSGRSTLYIAASQPGDSATYLCAVVDSWGKLQFGAGTQVVVTP Vbeta: NAGVTQTPKFQVLKTGQSMTLQCAQDMNHNSMYWYRQDPGMGLRLIHYSVGAGITDQGEVPNGYNVSRSTTEDFPLRLLSAAPSQTSVYFCASSPWGGATEAFFGQGTRLTVV
recognises		TCR of SEQ ID NOs 32 and 33 (TCR, V domains shown) Valpha: KQEVTQIPAALSVPEGENLVLNCSFTDSAIYNLQWFRQDPGKGLTSLLLIQSSQREQTSGRLNASLDKSSGRSTLYIAASQPGDSATYLCAVREWDARLMFGDGTQLVVKP Vbeta: NAGVTQTPKFQVLKTGQSMTLQCAQDMNHNSMYWYRQDPGMGLRLIYYSASEGTTDKGEVPNGYNVSRLNKREFSLRLESAAPSQTSVYFCASSLLRGWTEAFFGQGTRLTVV
recognises		TCR of SEQ ID NOs 36 and 37 (TCR, V domains shown) Valpha: KQEVTQIPAALSVPEGENLVLNCSFTDSAIYNLQWFRQDPGKGLTSLLLIQSSQREQTSGRLNASLDKSSGRSTLYIAASQPGDSATYLCAVTGGTSYGKLTFGQGTILTVHP Vbeta: NAGVTQTPKFRILKIGQSMTLQCTQDMNHNYMYWYRQDPGMGLKLIYYSVGAGITDKGEVPNGYNVSRSTTEDFPLRLELAAPSQTSVYFCASSYWAGVLTEAFFGQGTRLTVV
	recognises	TCR of SEQ ID NOs 28 and 29 (TCR, V domains shown) Valpha: KQEVTQIPAALSVPEGENLVLNCSFTDSAIYNLQWFRQDPGKGLTSLLLIQSSQREQTSGRLNASLDKSSGRSTLYIAASQPGDSATYLCAVKGRGTYKYIFGTGTRLKVLA Vbeta: NAGVTQTPKFRVLKTGQSMTLQCAQDMNHNSMYWYRQDPGMGLRLIYYSASEGTTDKGEVPNGYNVSRLNKREFSLRLESAAPSQTSVYFCASSYYGGSGAGYEQYFGPGTRLTVT
	recognises	TCR of SEQ ID NOs 30 and 31 (TCR, V domains shown) Valpha: KQEVTQIPAALSVPEGENLVLNCSFTDSAIYNLQWFRQDPGKGLTSLLLIQSSQREQTSGRLNASLDKSSGRSTLYIAASQPGDSATYLCAVNEGSNYKLTFGKGTLLTVNP Vbeta: NAGVTQTPKFRILKIGQSMTLQCTQDMNHNYMYWYRQDPGMGLKLIYYSVGAGITDKGEVPNGYNVSRSTTEDFPLRLELAAPSQTSVYFCASSYSSPHYGYTFGSGTRLTVV
